The values that follow come from patent publication US7687489B2, “Agent for treatment of cerebral ischemic diseases” (Ono Pharmaceutical Co., Ltd., priority 2001, dated 2010).

In this assay the test system is thrombin-induced focal cerebral ischemic model. Put plainly: Thrombin-induced focal cerebral ischemic model: survival and neurological symptom score. Type of assay: in vivo, male Wistar rats. Here is the method: Twenty male Wistar rats (8-weeks age) were used as one group. The rats were anesthetized with halothane, followed by incision and then subjected to carotid artery shunting. A polyethylene catheter containing thrombin (10 international units) was catheterized into the carotid artery, and […] of blood was sucked and reserved in the catheter for 10 minutes. Then, thrombus formed in the catheter was infused into the carotid artery together with thrombin (J. Cereb. Blood Flow Metab., 17, 123 (1997)).
The neurological symptoms of said rats were scored according to the method as described in Brain Res., 452, 323 (1988). The evaluation of score was carried out at 6 hours, 24 hours, 48 hours and 72 hours after infusion of thrombin, and the scores were accumulated. The survival period was determined by monitoring surviving or dead rats at intervals of one hour for the first 72 hours after the infusion of thrombin.
From forty minutes after thrombin infusion, t-PA (Activacin 100,000 international units, product of Kyowa Hakko Kogyo Co., Ltd.) was continuously administered in an amount of 33 μL/min to the anesthetized rats for 15 minutes. (R)-2-propyloctanoic acid (hereinafter referred to as compound A) in an amount of 10 mg/mL/kg was administered through tail vein of the rats three times at 6 hours, 24 hours and 48 hours after the infusion of thrombin.

[1] abbreviates: accumulated score, rats surviving 72 h, average ± standard error.

B1: t-PA: tissue plasminogen activator, thrombolytic agent (Activacin, product of Kyowa Hakko Kogyo Co., Ltd.) (protein, UniProt P00750 36-562, looked up)
Tissue-type plasminogen …: SYQVICRDEKTQMIYQQHQSWLRPVLRSNRVEYCWCNSGRAQCHSVPVKSCSEPRCFNGGTCQQALYFSDFVCQCPEGFAGKCCEIDTRATCYEDQGISYRGTWSTAESGAECTNWNSSALAQKPYSGRRPDAIRLGLGNHNYCRNPDRDSKPWCYVFKAGKYSSEFCSTPACSEGNSDCYFGNGSAYRGTHSLTESGASCLPWNSMILIGKVYTAQNPSAQALGLGKHNYCRNPDGDAKPWCHVLKNRRLTWEYCDVPSCSTCGLRQYSQPQFRIKGGLFADIASHPWQAAIFAKHRRSPGERFLCGGILISSCWILSAAHCFQERFPPHHLTVILGRTYRVVPGEEEQKFEVEKYIVHKEFDDDTYDNDIALLQLKSDSSRCAQESSVVRTVCLPPADLQLPDWTECELSGYGKHEALSPFYSERLKEAHVRLYPSSRCTSQHLLNRTVTDNMLCAGDTRSGGPQANLHDACQGDSGGPLVCLNDGRMTLVGIISWGLGCGQKDVPGVYTKVTNYLDWIRDNMRP
As for B1, under “72 hours after thrombin infusion, 20 rats per group, * p<0.05 vs control (Log-rank test)”, the “Survival rate after 72 hours” value is 35.0%. In addition, under “72 hours after thrombin infusion, 20 rats per group, t-PA infused from 40 min for 15 min, compound A 10 mg/mL/kg i.v. at 6, 24, 48 h”, the “No. of surviving rats” value was determined as 7. Under setting [1], the “Neurological symptom score, 0 to 6 hours” value is 3.4 ± 0.2; the “Neurological symptom score, 0 to 24 hours” value was found to be 3.4 ± 0.2; the “Neurological symptom score, 0 to 48 hours” value came to 3.1 ± 0.3; the “Neurological symptom score, 0 to 72 hours” value amounted to 3.0 ± 0.3.
